What is called Kd is a measure of binding affinity in units of concentration. Broadly, the stoichiometry N is a count of units in the complex or per binding partner.

Kd, dH and stoichiometry N data for one molecule are collected here from paper doi:10.1101/2023.07.29.551094.

This experiment deals with TslA lipase domain, purified (S. aureus). The experiment in a line: ITC. For orientation: Isothermal titration calorimetry measures the heat released or taken up as one component is titrated into another.

B1: TilA (SAOUHSC_00405) lacking its signal sequence, His tag removed (natural protein)
chain: CGNMKDEQKKEEQTNKTDSKEEQIKKSFAKTLDMYPIKNLEDLYDKEGYRDGEFKKGDKGTWTILTGFSKSNKPGVLDDEGMVLYLNRNTKKATGYYFVNKVYDDISKNHNEKKYRVELKNNKIVLLDNVEDKKLKQKIENFKFFSQYADFKDLKNYQDGNITTNENVPSYEAQYKMNNSDKNVKKLREIYPITTNNSPNLKLYIDGDIKGSSVGYKKIEYKFSKDKGQETTLRDYLNFGPSEGENVE
In turn, B1 came in with a Kd of 14.2 nM, a dH of -20.5 kcal/mol and a stoichiometry N of 0.88.
